Laboratory results reported in patent US7312060.

Columns and labels:
[1] = molecular target: APC segment 3 (amino acids 1098-1696), wild type, with N-terminal VSV-G tag and C-terminal P53-derived tag (Vesicular Stomatitis Virus; human) (UniProt P25054); assay: HTS-PTT ELISA on NeutrAvidin plate, alkaline phosphatase chemiluminescence
[2] = molecular target: APC segment 3 (amino acids 1098-1696), wild type, with N-terminal VSV-G tag and C-terminal P53-derived tag (Vesicular Stomatitis Virus; human) (UniProt P25054); assay: HTS-PTT ELISA, 0.1 ul of translation mix per well
[3] = molecular target: APC segment 3 (amino acids 1098-1696), wild type, with N-terminal VSV-G tag and C-terminal P53-derived tag (Vesicular Stomatitis Virus; human) (UniProt P25054); assay: HTS-PTT ELISA on NeutrAvidin plate, HRP chemiluminescence

Chain of UniProt P25054 (P25054 other isoform, or with tags, fused parts or gaps limits assumed): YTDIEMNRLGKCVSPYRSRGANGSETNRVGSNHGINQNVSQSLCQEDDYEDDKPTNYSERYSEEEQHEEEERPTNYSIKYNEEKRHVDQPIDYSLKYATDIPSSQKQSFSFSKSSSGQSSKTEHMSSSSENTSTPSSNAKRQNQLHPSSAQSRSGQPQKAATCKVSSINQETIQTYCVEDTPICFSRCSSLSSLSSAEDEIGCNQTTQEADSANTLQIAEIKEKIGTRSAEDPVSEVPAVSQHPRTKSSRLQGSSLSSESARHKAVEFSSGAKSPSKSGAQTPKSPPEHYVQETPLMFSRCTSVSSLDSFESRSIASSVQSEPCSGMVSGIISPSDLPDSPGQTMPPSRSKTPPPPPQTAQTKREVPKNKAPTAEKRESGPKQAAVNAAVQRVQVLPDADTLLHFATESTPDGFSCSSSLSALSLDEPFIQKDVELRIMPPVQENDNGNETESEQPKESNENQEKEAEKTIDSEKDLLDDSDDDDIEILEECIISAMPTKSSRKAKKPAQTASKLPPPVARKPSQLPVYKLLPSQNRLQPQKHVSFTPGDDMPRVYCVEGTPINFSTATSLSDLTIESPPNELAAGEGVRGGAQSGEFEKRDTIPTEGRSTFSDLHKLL

| Substance | signal over background (fold over background) [1] | signal-to-noise ratio [2] | signal over background (fold over background) [3] |
| --- | --- | --- | --- |
| anti-p53-alkaline phosphatase (Santa Cruz Biotechnology) (antibody) | 100 | 30 | – |
| anti-VSV-G-HRP (Roche Applied Sciences) (antibody) | – | 10 | 400 |
